The values below come from US20100323957A1, “NOVEL ASSAY FOR INHIBITORS OF EGFR” (THE REGENTS OF THE UNIVERSITY OF CALIFORNIA THE OFFICE OF …, priority 2007, published 2010).

The target in assay [1] is T1, EGFR kinase domain V924R mutant (Homo sapiens, UniProt P00533, V948R).
T1 construct: DNA encoding residues 672-998 of human EGFR was cloned into pFAST BAC HT; 6-His tag, linker and TEV cleavage site (N, cleaved yes); made in house; host or cells: Sf9 insect cells (baculovirus)
Kind of assay: Fluorescence anisotropy binding titration, V924R mutant kinase domain. The following applies: result in words. From the text:
(§1) The wild-type and mutant forms of the EGFR kinase domain were expressed and purified using methods known in the art and described in Zhang et al., (2006). The 60-residue MIG6 peptide was expressed in bacteria as a glutathione S-transferase (GST)-fusion protein, purified and treated with the TEV protease to remove the GST-moiety. The wild-type and Y358A mutant MIG6(segments 1-2) peptides were fused to a Trp DLE leader peptide and expressed as inclusion bodies and purified as described. All other MIG6 peptides were produced using solid phase synthesis. […] The binding affinities between the kinase domain and fluorescein-labeled MIG6 peptides were measured by monitoring the change of fluorescence anisotropy during the titration and fitting the data to a single-site binding model. Kinase assays in solution and on vesicle were performed using methods known in the art and described herein. Cell-based inhibition assays were performed using Cos-7 cells co-transfected with constructs containing full-length EGFR and MIG6.
(§2) Fluorescein-labelled 30-residue wild-type, M346L, M346A, F352A and Y358A MIG6 peptides were diluted to final concentrations of 5, 8, 3.1, 3.5 and 2.7 μM in a buffer containing 10 mM Tris, 50 mM NaCl and 2 mM DTT, pH7.5. […] The fluorescence anisotropy at each titration step was monitored. […]

A further assay deals with lung cancer. The following applies: patients with lung cancer; cited from earlier work.
Assay [2] concerns cancer cells in colon cancer. Conditions: in vitro; cited from earlier work.
A further assay relates to biliary tract cancer. The following applies: in vitro; cited from earlier work.
The subject of a further assay is gastric cancer cells. Conditions: cited from earlier work.
For assay [3], the target named is T2, EGFR kinase domain attached to lipid vesicles (activated EGFR kinase) (Homo sapiens, UniProt P00533).
T2 construct: DNA encoding residues 672-998 of human EGFR was cloned into pFAST BAC HT; made in house; host or cells: Sf9 insect cells (baculovirus)
Put plainly: Vesicle-based kinase assay: EGFR kinase domain attached to lipid vesicles. The following applies: for inhibition of activity of kinase domain attached to lipid vesicles: result in words. The class given is biochemical.
Source text: as §1

In assay [4] the target is T3, wild-type EGFR kinase domain (Homo sapiens, UniProt P00533).
T3 construct: DNA encoding residues 672-998 of human EGFR was cloned into pFAST BAC HT; 6-His tag, linker and TEV cleavage site (N, cleaved yes); made in house; host or cells: Sf9 insect cells (baculovirus)
Put plainly: Fluorescence anisotropy binding titration, wild-type kinase domain. The following applies: result in words.
Source text: as §1
Fluorescein-labelled 30-residue wild-type, M346L, M346A, F352A and Y358A MIG6 peptides were diluted to final concentrations of 5, 8, 3.1, 3.5 and 2.7 μM in a buffer containing 10 mM Tris, 50 mM NaCl and 2 mM DTT, pH7.5. These peptides in the cuvette were then titrated with the wild-type or mutant forms of the EGFR kinase domain at 20 uC. For the competition assays, the labeled 30-mer wild-type peptide ([…]) and kinase domain ([…]) were mixed and titrated with unlabelled competitor peptides. The fluorescence anisotropy at each titration step was monitored. The I682Q and K799E mutant kinases used in the binding assays contain the N-terminal 63H is tag and linker fragment before the kinase domain, whereas this N-terminal fragment in the wild-type and V924R mutant kinases was removed by Tobacco Etch Virus protease treatment.

Assay [5] deals with T4, EGFR kinase domain I682Q mutant (Homo sapiens, UniProt P00533, I706Q).
T4 construct: DNA encoding residues 672-998 of human EGFR was cloned into pFAST BAC HT; made in house; host or cells: Sf9 insect cells (baculovirus)
Kind of assay: Fluorescence anisotropy binding titration, I682Q mutant kinase domain. Conditions: result in words.
Source text: as §1, §2

Assay [6] deals with T5, EGFR kinase domain L834R mutant (Homo sapiens, UniProt P00533, L858R).
T5 construct: DNA encoding residues 672-998 of human EGFR was cloned into pFAST BAC HT; made in house; host or cells: Sf9 insect cells (baculovirus)
Kind of assay: Kinase assay in solution, L834R mutant kinase domain. Conditions: result in words. The class given is biochemical. The protocol: To test the role of segment 2, we produced a longer peptide (residues 336-412, MIG6(segments 1-2)), and analyzed its effect on a variant of the EGFR kinase domain that contains a mutation (L834R) that renders it constitutively active in the absence of concentration on vesicles. MIG6(segments 1-2) inhibits this mutant kinase domain with an IC50 value of ˜200 nM (FIG. 25a). MIG6(segments 1-2) bearing a mutation within segment 1 (Y358A) inhibited L834R much less efficiently (IC50˜5 μM).
(§3) Kinase assays were performed using methods known in the art and described herein. The substrate peptide was kept at 1 mM in all the experiments. The reported rates are the initial velocities normalized by the kinase concentrations. The wild-type kinase concentrations in the vesicle-based and solution-based assays were […] respectively.
(§4) A continuous enzyme-coupled kinase assay was performed to measure the kinase activity of the proteins as described in Barker et al., ((1995) Biochemistry, Vol. 34(54): 14843-51), with modifications, as described herein. The ATP concentration was kept to 0.5 mM.
(§5) The buffer used contained 10 mM MgCl2, 20 mM Tris, and pH 7.5. […] The substrate peptide was derived from the region spanning Y1173 in EGFR ([…]). All proteins used in this assay contained the N-terminal (His)6 tag unless otherwise noted.

Assay [7] deals with T4, EGFR kinase domain I682Q mutant. Kind of assay: Kinase assay in solution, I682Q mutant kinase domain (basal activity). The class given is biochemical. The following applies: result in words. The protocol: The EGFR kinase domain has very low activity in solution, but is activated on increasing its local concentration by tethering it to lipid vesicles, which promotes the formation of the asymmetric dimer. […] An EGFR kinase domain bearing an I682Q mutation is not stimulated by concentration at the membrane because it is unable to form the asymmetric dimer. […] Thus, MIG6(segment 1) is only able to inhibit the kinase domain in the context of asymmetric dimer formation.
as §3, §4, §5

As to “30-residue fluorescein-labelled MIG6 peptide: fluorescein-labelled MIG6 peptide, residues 334-363, spanning the entire binding epitope of segment 1”, the “binding to EGFR kinase domain bearing V924R mutation” value in assay [1] is “abolishes peptide binding”.
For `C#Cc1cccc(Nc2ncnc3cc(OCCOC)c(OCCOC)cc23)c1` [Erlotinib], the survival times entry with lung cancer is on record as “increases survival times by several months”.
For `COc1cc2ncnc(Nc3ccc(F)c(Cl)c3)c2cc1OCCCN1CCOCC1` [gefitinib], the “growth of cancer cells” value (in assay [2]; with biliary tract cancer) was “halt the growth of cancer cells” throughout. For the same molecule, the “apoptosis of gastric cancer cells” value with gastric cancer cells was “increase apoptosis”.
As to “F352A: 30-residue MIG6 segment 1 peptide with F352A mutation (SPKSLPSYLNGVMPPTQSAAPDPKYVSSKA; UniProt Q9UJM3 334-363, looked up, variant F352A)”, the “inhibition of activity of kinase domain attached to lipid vesicles” value (“inhibition of activity … to lipid vesicles” for short) in assay [3] is recorded as “do not inhibit kinase activity significantly”. Moreover, the “binding to the wild-type EGFR kinase domain” value in [4] is “abrogates binding”.
Take “KSLPSYLNGVMPPTQSFAPDPKYVSS (chains of the parent or of the whole protein) [40-mer peptide]”: the IC50 in assay [3] (vesicle-based kinase assay, read-out: IC50 for inhibiting the activated EGFR kinase (kinase domain attached to lipid vesicles)) is around 10 µM.
Turning to “M346A: 30-residue MIG6 segment 1 peptide with M346A mutation (SPKSLPSYLNGVAPPTQSFAPDPKYVSSKA; UniProt Q9UJM3 334-363, looked up, variant M346A)”, the “inhibition of activity … to lipid vesicles” value in [3] is “do not inhibit kinase activity significantly”. The “binding to the wild-type EGFR kinase domain” value in assay [4] is “abrogates binding”.
On to “MIG6(segment 1): 25-residue epitope of MIG6 (residues 337-361) binding the EGFR kinase domain; tested as the 30-residue peptide”, for which, in assay [4], the “binding to the wild-type EGFR kinase domain” value is given as “micromolar affinity”. Also, in assay [1], the “binding to EGFR kinase domain bearing V924R mutation” value was “does not bind”. For the same molecule, in [5], the “binding affinity for I682Q mutant kinase domain compared with wild-type” value is reported as “same binding affinity”. Further, the “inhibition of L834R mutant kinase domain” value in assay [6] is on record as “did not inhibit”. Further, the “inhibition of basal activity of I682Q mutant kinase domain in solution” value in assay [7] is on record as “not inhibited”.
Regarding “Y358A: 30-residue MIG6 segment 1 peptide with Y358A mutation (SPKSLPSYLNGVMPPTQSFAPDPKAVSSKA; UniProt Q9UJM3 334-363, looked up, variant Y358A)”, the “inhibition of activity … to lipid vesicles” value in assay [3] is reported as “do not inhibit kinase activity significantly”. In assay [4], the “binding to the wild-type EGFR kinase domain” value was “abrogates binding”.
